Data reported in paper doi:10.1101/2023.06.07.543977.

T1: mKu (mycobacterial Ku) (Mycobacterium tuberculosis, UniProt P9WKD9 1-273)
T1 sequence: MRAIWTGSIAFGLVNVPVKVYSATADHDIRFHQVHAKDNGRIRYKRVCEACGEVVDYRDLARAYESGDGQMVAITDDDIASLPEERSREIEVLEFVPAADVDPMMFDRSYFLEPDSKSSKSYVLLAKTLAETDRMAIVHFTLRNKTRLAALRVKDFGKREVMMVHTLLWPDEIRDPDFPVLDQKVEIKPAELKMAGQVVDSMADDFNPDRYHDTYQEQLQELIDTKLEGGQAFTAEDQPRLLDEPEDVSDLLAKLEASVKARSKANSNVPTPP

B1: 20 bp dsDNA (dsDNA)
DNA 1: GTCGTAGCCCACCTGACCGT
DNA 2: ACGGTCAGGTGGGCTACGAC
B2: 29 bp dsDNA (dsDNA)
DNA 1: CGAACCAGCTGGCGCATAGCCGCGCTATC
DNA 2: GATAGCGCGGCTATGCGCCAGCTGGTTCG

Molecular target: T1, mKu (mycobacterial Ku)
Test: SPR

Binder | apparent K (half saturation) [nM]
B1 | 10.8 ± 2.47
B2 | 17.9 ± 4.58
